Measured values reported in a protein production outcome set (Wang et al. 2014).

Test: label from the status in PepcDB records
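Further: failed if final PepcDB status was selected cloned or expressed and not failed if soluble or beyond.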

Which protein production does the source give for “MVSLLLISLLYLGIMLIAAKISEEIFRRIGLVTFVGPILMGILLGNGVFGVIQINEIISFITSLGIVFLLFLAGAEEFNVENRPNANVFLAVILESIIPFSVILVAIYIIGFKNYLILIVPLAMSSAGPLSRMLMDVKISDNRISNLIFQQVILIEIIFVILFAILLKTSEILITIIEIFLVFAFTIMFGRTLAKILEKIEYYFKAREIEFASLIAIILIIGYLAELYKFNSAISAFFLGILLKDYLKDRPELLERLHAFTYGFFEPLFFLGIGLYVTKINASIILFSLLFFSLIIASKFLAGFISSKILNIKGKINGFATSVKGGVDSSLLLTGLTLGYINEFMYSFSILAISLSALIVPLLFQINFKISNKISESKKVKLSQEVIKLQIKPLYASCEENLRSVISKISERGVRGIVVVNYENKPLGYVSIQTLLEIDPELYESTKACEVPLDEVPIEYDNVKVIDLLRKFRETEKPVIAIINKEGVLVTTVYERELARFLISF” here?
Its protein production is “failed”.

Which protein production does the source give for “MNFEYPDGATPLDSDEAEGLLLTHITSRGELDRWEQENIAEGEAWAFGRRQKNILSEAFIRRLHKRMFGHVWRWAGEFRRSDKNIGVTWWQVPIELRKLCDDVVAWIAFGTYPPDEIAVRFHHRLVAIHPFANGNGRHARTMTDLLLVQALQRPRFTWGSGNLVSVGDCRRYYIEALRAADRHDYQLLLEFVRMLEHHHHHH” here?
The protein production was “failed”.

Which protein production does the source give for “DLQAYLQAHYDVLEGKIQLDINGTEIQKGVWVGSGAIIEPGAILNPPCVIGDNCRIESGAVIDSLSVIGNNNVIERDSSVKRSVIWDGNYIEYGSK” here?
Its protein production is “failed”.

With “MNIEKTRFCINRKIAPGLSIEAFFRLVKRLEFNKVELRNDMPSGSVTDDLNYNQVRNLAEKYGLEIVTINAVYPFNQLTEEVVKKTEGLLRDAQGVGARALVLCPLNDGTIVPPEVTVEAIKRLSDLFARYDIQGLVEPLGFRVSSLRSAVWAQQLIREAGSPFKVLLDTFHHHLYEEAEKEFASRIDISAIGLVHLSGVEDTRPTEALADEQRIMLSEKDVMQNYQQVQRLENMGYRGIYAFEPFSSQLASWSEAEIEEQINRSVSLLLQ” as the sequence, how does the protein production read?
The protein production was “not failed”.

Which protein production does the source give for “MAAKICNRKNCKRSVQKMRIRSLLIILTIGLLLVNAICVSALGQTSESIARGDVYFGLMRYRDAIAWYKLDSTKAEAQWKIARAYVCYGDNAVPAEKEYNFRNAVRAANKCIELEETNANGHTWLAAALGNTAMYEGSKTKVRLCTQIKKELNRAIALNPKDDIAYSILGSFYREIGNISWLEKQLAMTFIGKIPDGTYEDSEKAFAKAIALNPTIMRHWYEQGLLYKYWNKNEQAIASFNKAKACPVFVSSDNKRLAAIEVYLKNLQ” here?
Its protein production is “failed”.

Which protein production does the source give for “MNSLINIFNQYSELAIFISLFISVIIALLGIVPSVFVTGANIVFFGPINGFLISLLGEVIGGWISFKVYRKGINKFAGNIEGKYELIDKIVKSEGRNVGILIFEGRLIPFIPSGLVTLAAAMSKVNSFTFIISTFLGKIPSILLEVLASYGVIMASQKNLKLVIGVLSLILFLLTLKKLKDKTNKK” here?
Its protein production is “failed”.

With “MISNEEMKSGNILNLFCKFALPAVVGVLIAGIQGIIDGFFIGNAIGSHGLAGITLAYPPYLAIIAAGIIIGIGSSSLIALRLGEGKTGEALEIMNNAFPLCLIAGAVFTAGGLIFCRTSISLLGTNGPALSLASEYLHIIFAGSVFMILAIALDPLVRNNGKPRLCMKIMVAGVLANIILDYLLVMHMEMGMSGAATATVLSFVLPAVLLTHHLLSSQAKLRLRIKSMRVKTATALKILNAGVPSFVMQMSFALMLFVQNYMLLRYGSELAVSAYGVIGYIFSIFYMLFEGIALGVQPIIGFNYGAGNYGRVLKTLKLTILSCTLIGALGFTLIYLFPESLVQIFSQRDSELLDATLQGMDIFMFSLLVEGTVLLTAVYYQSINRVRAALFIHLGKIFIFLFPLLFILPHFFDLNGVWAASPATEYLMAAVVMVMLSKEFDFLRNSRKVEIKQPVTLKITSEVTSKHETSASRNTVKTGNEECTGFIPFKHTEREAS” as the sequence, how does the protein production read?
The protein production was “failed”.

For “MFIYGHMEKSERKNYLRESREVSYISLALLIISYIVISSIRFSFYLLSIMLIVSLLNFSIYFYMRYKIHARYHKNIDIQGYILEDNSWRYVLSLSVLLTIFIFLEYPFPFIRFYSFILIVNAFVITTWIVSLNGPIIGMLISRSDPLYEPFLYRAMELANAMNINVPDLYILDTRNRIANAFTVSRKESYVFITRLLMNILDVDEVTAVMAHEFAHIKLRHNLKTSIINFAVILFLINIALYGLTLDSFAGIMLPVISIIIYMFFTTFLLNYIKRRNEINADLTAIKYVNPDYLISALHKIENLEIFSRRISDIYLDHPSIDRRISIINRSRSS”, which protein production is on record?
The protein production was “failed”.

Which protein production does the source give for “GQVDGEDVVSISSADLDETEGNLNMTTVSVRSGMTLSQVISRWLFTDDTIVPIEQVFPPGQSTEEVEESNRTAFISSESSATIAAMNYLNIPVEVEVAEVLTDSAATGIFEPGDKLLSIDGTAISTPGDAQTIVRSKAPGDEITISYERNDAESQATITLREHPDDSSVALLGISMLSVP” here?
Its protein production is “failed”.

For “MENSGAYTFETIAREWHESNKRWSEDHRSRVLRYLELYIFPHIGSSDIRQLKTSHLLAPIKEVDTSGKHDVAQRLQQRVTAIMRYAVQNDYIDSNPASDMAGALSTTKARHYPLEHHHHHH”, which protein production is on record?
Its protein production is “not failed”.

With “MNSNIYAVIVTYNPELKNLNALITELKEQNCYVVVVDNRTNFTLKDKLADIEKVHLICLGRNEGIAKAQNIGIRYSLEKGAEKIIFFDQDSRIRNEFIKKLSCYMDNENAKIAGPVFIDRDKSHYYPICNIKKNGLREKIHVTEGQTPFKSSVTISSGTMVSKEVFEIVGMMDEELFIDYVDTEWCLRCLNYGILVHIIPDIEMVHAIGDKSVKICGINIPIHSPVRRYYRVRNAFLLLRKNHVPLLLSIREVVFSLIHTTLIIATQKNKIEYMKKHILATLDGIRGITGGGRYNA” as the sequence, how does the protein production read?
Its protein production is “failed”.

Which protein production does the source give for “DDFEDSLEYLEPLDHDAYIVRLNFTGENTTEPIISYMTKTHNIDVNILEADIKNTKNGSLGFLVIHIPHISEEHFKQFKHNLHEQHVNVEVLKHG” here?
Its protein production is “not failed”.

With “MTRIAIVGAGPAGLSLAYFLKGSRKVEATVYESMPEPGLKPCAWGLITGIENIIPIPNETIISEIRGFRIYLDNKLVFDIRTDNKLGYIIDKPLFLKRLSQEVNVEFNSKVVKKDDKYYINDKSLDHDKVIFATGHYSVSKSMSIPAIQYITDYEIDKEVVEFYFYSGFLGYAWVFPDREGSKIGIGGYAEVPELKERLKQILKGRIRTFHGARVTDYGVIEDRLDGNYTGEALGTVYAITGEGIRPSIISSKILADSILNRKDFKKEFKKSKLYWSLNWHAKIIKMTKENDPGTARLSKALLNNDPQLILKFAIGEFNRVDLIKIFGRSLILEHHHHHH” as the sequence, how does the protein production read?
Its protein production is “not failed”.

For “MRMNIRVALPQAQVHWCRGWLQAAHADALMQALLDQVQWEVHRIRMFGRVVDSPRLSSWIGDADASYRYSGTQFAPQPWLEALQPVRTRLQDETGSPFNSVLVNRYRSGADAMGWHSDDEPELGAQPVIASLSLGAARRFAFKHRHDAALKQTLELGHGDLLLMGGDTQRHYKHALPRTVKPVGERINLTFRQIAVRVSQRLEHHHHHH”, which protein production is on record?
The protein production was “failed”.

Which protein production does the source give for “MTEEQLQALRAAISVCRRCRDEPARGEGHRLPHEPRPVAVLSASARILIAGQAPGLRVHESGLPFNDASGDRLRQWLSVDRAAFYDQRNFAIVPMGFCFPGYDRHGSDLPPRSECAPLWRQRAMDAMPQIELVLAVGHYAQRWHLGTDCPKSMTETVRNWQRYAKRNSGISVLPLPHPSWRNTGWLRRHPWFEAELLPFLRERVQALTI” here?
The protein production was “failed”.

Which protein production does the source give for “MLRSLLVPLFSNAASSTDDHGITLPQYQVFINFRGDELRNSFVGFLVKAMRLEKINVFTDEVELRGTNLNYLFRRIEESRVAVAIFSERYTESCWCLDELVKMKEQMEQGKLVVVPVFYRLNATACKRFMGAFGDNLRNLEWEYRSEPERIQKWKEALSSVFSNIGLTSDIRRYNLINKNMDHTSEFLYIVLILNFFSEISDMTGLTTSYQFLLMMKSNLISYDIYIYPTKFCVNVFIGV” here?
Its protein production is “failed”.

Which protein production does the source give for “MKKNLLYLSCALMCMLGFLSSCKDDEKEIPPVVEDVVAQYTGDKVKVTLGGEAVSGDAQIDLVQQDDKSLTIKLLNIIPDVKEFSIPNAEFEATTRSAYISKLSGKVSNAVVGYDVTFEGVVDEGVLTASITATEIKGDSINAKKAGLTGKTFKGKMTINVSNIPTPIEMEQRVYTSVVSKDTSAIKLKINDFAFQGLKLGDISLDTVAVRHRGEQDGKPIYGFKTKSQEMTLEAVGKVLIDANGTIIGEKMELSLNVNAVTAGLTVGVDFSGNIVEESTDTKATITVTGDAVAEGVTVSGNTYTFKVWESTPDDQLVFIPKIEIPATAVLDSIIIYDNRNKKVSAVEPNTAIDFSQLKENYYVGYHVTPEDIRYPSKKMLKMVRIAELNPVYDMATWVADGDFEKPNGLTTSNLAAAFFPMFGIDVPTPVVKASDNAAEITTSRTVSATLPSTLVPGVTAGTMFLGEFKVDITNTLKSTHFGVPYRVKPVNFKITYKYTPGTTFYKTVVKNNANDTEVVPNEKDECSINAYLYEVDSYAETLDGTNINTSNKVIMKAVLEDGSAKADYVTLTIPFKETGNGSFDPTKKKYKLAIVCSSSKKGDQFMGADGSKLWVKYLEVTR” here?
The protein production was “failed”.

With “MTSYTAAGLGELVQRDGALVNGRIYTDPEIFGLEMERIFSKVWVYVGHESQVANPGDYMTGYLAQQPIILTRDRAGQIHVLFNRCTHRGAKIVNRERGNERLLTCMYHGWAFGHDGELRGIPLKKDFPAEAVEPCKASLARPPRVDAYRGFIFASLNPDVEPLRDYLGAAASGIDEIVDRAPAGTIRLSAGCHRYIYEGNWKLQTDNLGDMYHPVACHSSTVDEDGKQFKRRPGDEGGRAAFLGADGEPIVIQTGVRGFLRGHSSEASLFGANDIVKEETRQRGGIIDEYRSLLIEQHGVEKTDEILKNRRHSMTLFPNLDVLMVQTSVRVVIPLAYNRTEVRIYPVHLDGAPDELNRQIIKFLNITHSAASFIQTDDLEAFKRQQEGLAARSPQWLIVARGQGSEIDEGNGAYFGPRASEVGQRMRHQYWRELMMAE” as the sequence, how does the protein production read?
The protein production was “failed”.

Which protein production does the source give for “MSQFTPHFTYRNVALALLVSTVLNGCATKGFRDADDQAERDIRTAEQLHGLSLKQPSSPSLVWVDEPWVNPRPIRVSARAQQVKLPPCSLTLIIDGSLSLYEVGQRITRSCGFPVVITPDAMSALSGSASQGGVGATRAIQGALPRPDEGGRPALGSIGGVTSTQSFSPNIGAGLITDISWEGEPLGGALDQITSRLGLNWKFENNQVVLYYLDTRTYRLKVLNAETAMNSNLTGTSSSTAGGDSSSVSGSQNSGQSTSVKLESKIHNDIGQSIKSMVSSSGSWHLSGSTGELVVTDVPQVLDRVESYIDSLNVRMNRMVKLMVSVYSVQRKGSSQTSLDWSVVGKRLDRFGLTLAGTPTATTAVSSAGINVVDGKFAGTTALFRALETQGKVSVVMAHEATTTNLVPAPFQIAGQMVYLRSQKTSVSENYATTDMEPGSITTGTQMTLLPDIRDEGDIQLQFNFSHSDPAQLRKESSKDGNTKMEMPYTTVRSLSERVNLKPGQTLIVSGYNSRNLTASREGAFDPDVTVAGGGKSSETDDVTLIIAVTPVLM” here?
The protein production was “failed”.

With “SATQIPSTISILATSDIHGNVLNYDYATGKAPTNTQGLAKVSSYVNSVRASKPNVMLIDDGDTIQGTPLSYYYDKIDTTSEYPLMKIMGAMKYDTWTLGNHEFNYGLPTLNRVISDARKENINVLSANTYNSDNTNFVNPYYIKTFNINGKTVNVGILGLTTKCIPDWEDPSHYAGLHFNDLVDEAKLWVPRMKAAGANVVIVAAHSGEEGAADTIPENQIKAIATNVSGIDAIVAGHAHVTVNDTSLKNPNGKTVPVVEPNKWGTFVSQIDITLDNSGNASTINTQNVKMTDSIPEDPNIVNIIQPYQNKTLDYIST” as the sequence, how does the protein production read?
The protein production was “failed”.

Which protein production does the source give for “MMIMLSKRPVAMRIALRPLALAASLILSTPFALNATTFGTDLLEGQVLDGIGTGAGNLGTVADIQNTLSNMLRDEAAIGTLASVLPQALQRLPDDRQLRLLQAVVWAATRRDDDARAQMAQIGQEPPNVWRHVAEGLIARNAGDLARAAASLDEARALDPDNAYVHNTAGSIAFAAGDLEAAQEHFAQAVKSAPGWPRLLRQPCRHDDRTRQSARGPDHSGRKPPSPSRLLRHPPDGGRGASVARAVGCCRSRAAHLP” here?
The protein production was “failed”.
